Assay results: patent US20230348603A1 (VERSEAU THERAPEUTICS, published 2023)

T1: Human VSIG4-L-His (human, UniProt Q9Y279 20-283)
T1 construct: long isoform ECD with His tag; also called hVSIG4-L
T1 sequence: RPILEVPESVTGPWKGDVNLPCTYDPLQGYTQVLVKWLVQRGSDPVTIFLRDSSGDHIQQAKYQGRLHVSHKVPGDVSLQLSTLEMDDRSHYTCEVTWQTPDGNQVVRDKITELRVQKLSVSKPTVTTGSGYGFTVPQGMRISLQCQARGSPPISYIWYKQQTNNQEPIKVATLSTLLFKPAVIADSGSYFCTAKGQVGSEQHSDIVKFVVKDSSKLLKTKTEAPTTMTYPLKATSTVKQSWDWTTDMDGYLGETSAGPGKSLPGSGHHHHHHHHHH

T2: Human VSIG4-S-His (human, UniProt Q9Y279 20-283)
T2 construct: short isoform ECD with His tag; also called hVSIG4-S; VISG4-S-His
T2 sequence: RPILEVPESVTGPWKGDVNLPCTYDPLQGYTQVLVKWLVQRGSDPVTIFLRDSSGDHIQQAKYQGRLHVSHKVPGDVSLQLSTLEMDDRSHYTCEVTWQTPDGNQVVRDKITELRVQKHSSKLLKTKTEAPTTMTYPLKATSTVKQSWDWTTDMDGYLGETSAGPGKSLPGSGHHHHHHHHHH

T3: Cynomolgus Monkey VSIG4-L-His (cynomolgus monkey)
T3 construct: ECD with His tag; also called cyVSIG4-L; cyno VSIG4-L-His
T3 chain: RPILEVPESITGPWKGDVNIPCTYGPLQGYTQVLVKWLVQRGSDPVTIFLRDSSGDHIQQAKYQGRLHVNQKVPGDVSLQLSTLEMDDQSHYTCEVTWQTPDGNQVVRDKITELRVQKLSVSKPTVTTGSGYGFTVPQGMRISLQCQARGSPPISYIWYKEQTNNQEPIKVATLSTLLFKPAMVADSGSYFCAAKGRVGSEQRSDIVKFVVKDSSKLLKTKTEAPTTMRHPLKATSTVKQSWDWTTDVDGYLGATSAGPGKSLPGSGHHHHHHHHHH

T4: Human VSIG4-L-CHO (human VSIG4 long isoform on CHO-K1 cells) (human, UniProt Q9Y279 20-399)
T4 construct: also called hVSIG4-L (flow cytometry)
T4 sequence: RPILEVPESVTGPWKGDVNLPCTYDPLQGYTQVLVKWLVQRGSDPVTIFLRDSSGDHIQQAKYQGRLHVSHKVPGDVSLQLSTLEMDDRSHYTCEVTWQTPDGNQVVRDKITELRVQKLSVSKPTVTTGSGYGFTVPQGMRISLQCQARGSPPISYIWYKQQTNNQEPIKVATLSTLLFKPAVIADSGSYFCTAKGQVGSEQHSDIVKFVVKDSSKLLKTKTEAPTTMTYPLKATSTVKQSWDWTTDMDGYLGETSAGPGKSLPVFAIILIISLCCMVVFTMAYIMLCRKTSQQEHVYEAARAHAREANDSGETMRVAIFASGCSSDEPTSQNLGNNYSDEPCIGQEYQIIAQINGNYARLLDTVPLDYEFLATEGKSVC

T5: Mouse VSIG4-His (mouse)
T5 construct: ECD with His tag; also called mVSIG4
T5 chain: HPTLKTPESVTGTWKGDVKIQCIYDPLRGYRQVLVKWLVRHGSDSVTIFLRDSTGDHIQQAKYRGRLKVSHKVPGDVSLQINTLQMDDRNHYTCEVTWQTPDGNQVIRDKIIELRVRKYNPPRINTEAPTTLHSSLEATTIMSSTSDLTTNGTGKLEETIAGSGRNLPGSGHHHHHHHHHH


Assays:
[1] = molecular target: T6, Human VSIG4-L-Fc (human); experiment: BLI binning on hVSIG4-L-Fc, competitor 16E03 first;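 note: normalized to binding of second antibody without first competitor antibody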
T6 construct: also called hVSIG4-L-Fc; hVSIG4-L
Target sequence in this assay (chain, as listed by the source limits assumed): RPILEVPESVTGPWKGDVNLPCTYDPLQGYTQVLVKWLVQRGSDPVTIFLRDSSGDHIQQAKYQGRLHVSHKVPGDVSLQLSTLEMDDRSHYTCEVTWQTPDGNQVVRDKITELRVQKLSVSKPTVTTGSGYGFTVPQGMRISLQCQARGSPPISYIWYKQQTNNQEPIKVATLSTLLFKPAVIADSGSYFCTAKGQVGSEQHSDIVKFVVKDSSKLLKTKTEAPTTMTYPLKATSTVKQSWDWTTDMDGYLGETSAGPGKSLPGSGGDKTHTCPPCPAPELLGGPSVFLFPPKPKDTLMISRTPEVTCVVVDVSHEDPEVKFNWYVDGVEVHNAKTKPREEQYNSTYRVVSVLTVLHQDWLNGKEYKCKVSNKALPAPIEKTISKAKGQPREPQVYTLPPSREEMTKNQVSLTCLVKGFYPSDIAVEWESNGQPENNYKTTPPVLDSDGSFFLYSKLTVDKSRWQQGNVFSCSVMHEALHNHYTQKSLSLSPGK

[2] = molecular target: T6, Human VSIG4-L-Fc; experiment: BLI binning on hVSIG4-L-Fc, competitor 14C05 first;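 note: normalized to binding of second antibody without first competitor antibody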
Procedure: (§1) Epitopic diversity of functional antibodies was further assessed by antibody cross-blocking experiments, performed on a ForteBio Octet® Red384 system. […] All assay steps occurred at 30° C. with an acquisition rate of 5.0 Hz.
(§2) Binning results were calculated using ForteBio Data Analysis HT software. Antibody “a” and antibody “b” steps were defined, and the maximum binding calculation was averaged at the last 10% of the step duration. Once the matrix was generated, the antibody “b” binding signal in the absence of any antibody “a” was used to normalize the maximum binding of the competitor antibodies. Hierarchical clustering was set with a similarity metric of Pearson and Lingang Criteria by Mean, and the normalized maximum binding nm shift is reported in Table 9 below.

[3] = molecular target: T6, Human VSIG4-L-Fc; experiment: BLI binning on hVSIG4-L-Fc, competitor 12A12 first;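 note: normalized to binding of second antibody without first competitor antibody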
Procedure: as §1, §2

[4] = molecular target: T1, Human VSIG4-L-His; experiment: BLI (Octet), IgG on AHC sensor, antigen 100 nM
Procedure: (§3) The binding affinity of chimeric antibodies was determined by biolayer interferometry (BLI), using a ForteBio Octet® Red384 system. […] Biosensors were rehydrated prior to the assay in kinetics buffer for 10 minutes and then equilibrated in kinetics buffer for 60 seconds. Antibody was then immobilized for 300 seconds followed by a 120 second baseline wash in fresh kinetics buffer, 300 second analyte association, and 300 second dissociation in the same buffer wells as the baseline wash step. All assay steps occurred at 30° C. with an acquisition rate of 5.0 Hz
(§4) Processing parameters included double reference subtraction, with human IgG4 used as an isotype control for reference sensor subtraction and immobilized ligand in kinetics buffer with no analyte used for reference sample subtraction. Y-axis data was aligned to the average baseline step for the last 5 seconds and all steps were inter-step corrected to the start of the dissociation step. High frequency noise was removed using Savitzky-Golay filtering and final fitting was a 1:1 global binding model to both association and dissociation.

[5] = molecular target: T2, Human VSIG4-S-His; experiment: BLI (Octet), IgG on AHC sensor, antigen 100 nM
Procedure: as §3, §4

[6] = molecular target: T3, Cynomolgus Monkey VSIG4-L-His; experiment: BLI (Octet), IgG on AHC sensor, antigen 100 nM
Procedure: as §3, §4

[7] = molecular target: T6, Human VSIG4-L-Fc; experiment: ligand competition ELISA (FJB), blocked ligand C3b
[8] = molecular target: T4, Human VSIG4-L-CHO (human VSIG4 long …); experiment: flow cytometry (FJB), 200 nM mAb, huVSIG4-L CHO-K1 cells
[9] = molecular target: T6, Human VSIG4-L-Fc; experiment: ligand competition ELISA (FJB), blocked ligand iC3b
[10] = molecular target: T1, Human VSIG4-L-His; experiment: SPR (FJB)
[11] = molecular target: T3, Cynomolgus Monkey VSIG4-L-His; experiment: SPR (FJB)
[12] = molecular target: T6, Human VSIG4-L-Fc; experiment: BLI binning on hVSIG4-L-Fc, competitor 16E10 first;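 note: normalized to binding of second antibody without first competitor antibody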
Procedure: as §1, §2

[13] = molecular target: T5, Mouse VSIG4-His; experiment: ELISA, IgG 50 nM on coated antigen;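 note: Mouse-human chimeric IgG4 antibodies incubated 1 h on plate-coated VSIG4 proteins, bound IgG detected with HRP-labelled anti-human IgG, irrelevant antibody and protein as specificity controls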
[14] = molecular target: T6, Human VSIG4-L-Fc; experiment: ELISA, IgG 50 nM on coated antigen;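 note: Mouse-human chimeric IgG4 antibodies incubated 1 h on plate-coated VSIG4 proteins, bound IgG detected with HRP-labelled anti-human IgG, irrelevant antibody and protein as specificity controls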
[15] = molecular target: T3, Cynomolgus Monkey VSIG4-L-His; experiment: ELISA, IgG 50 nM on coated antigen;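 note: Mouse-human chimeric IgG4 antibodies incubated 1 h on plate-coated VSIG4 proteins, bound IgG detected with HRP-labelled anti-human IgG, irrelevant antibody and protein as specificity controls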
[16] = molecular target: T7, Human VSIG4-S-Fc (human); experiment: ELISA, IgG 50 nM on coated antigen;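 note: Mouse-human chimeric IgG4 antibodies incubated 1 h on plate-coated VSIG4 proteins, bound IgG detected with HRP-labelled anti-human IgG, irrelevant antibody and protein as specificity controls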
T7 construct: short isoform ECD fused to human Fc1; also called hVSIG4-S
T7 sequence (chain, as listed by the source limits assumed): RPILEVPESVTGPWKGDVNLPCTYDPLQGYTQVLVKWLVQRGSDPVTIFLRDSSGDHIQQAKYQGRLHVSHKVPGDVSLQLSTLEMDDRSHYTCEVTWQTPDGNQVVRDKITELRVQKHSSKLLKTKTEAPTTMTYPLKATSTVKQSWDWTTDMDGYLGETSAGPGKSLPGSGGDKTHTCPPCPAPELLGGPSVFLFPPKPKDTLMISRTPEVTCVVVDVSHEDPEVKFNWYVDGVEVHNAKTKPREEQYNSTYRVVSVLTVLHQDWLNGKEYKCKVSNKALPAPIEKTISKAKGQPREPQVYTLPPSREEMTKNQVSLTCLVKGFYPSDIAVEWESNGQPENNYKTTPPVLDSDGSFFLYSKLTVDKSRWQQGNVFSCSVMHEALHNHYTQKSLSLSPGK

[17] = molecular target: T6, Human VSIG4-L-Fc; experiment: BLI binning on hVSIG4-L-Fc, competitor 13H11 first;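 note: normalized to binding of second antibody without first competitor antibody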
[18] = molecular target: T4, Human VSIG4-L-CHO (human VSIG4 long …); experiment: flow cytometry, CHO-K1 cells expressing hVSIG4-L
[19] = molecular target: T6, Human VSIG4-L-Fc; experiment: ligand blocking of iC3b, IgG
[20] = molecular target: T6, Human VSIG4-L-Fc; experiment: BLI binning on hVSIG4-L-Fc, competitor 15A06 first;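 note: normalized to binding of second antibody without first competitor antibody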
[21] = molecular target: T6, Human VSIG4-L-Fc; experiment: BLI binning on hVSIG4-L-Fc, competitor 15C04 first;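 note: normalized to binding of second antibody without first competitor antibody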
[22] = molecular target: T4, Human VSIG4-L-CHO (human VSIG4 long …); experiment: flow cytometry (FJB), 200 nM mAb, huVSIG4-L CHO-K1 over parental CHO-K1
[23] = molecular target: T6, Human VSIG4-L-Fc; experiment: BLI binning on hVSIG4-L-Fc, competitor 15C03 first;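 note: normalized to binding of second antibody without first competitor antibody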
Procedure: as §1, §2

[24] = molecular target: T6, Human VSIG4-L-Fc; experiment: BLI binning on hVSIG4-L-Fc, competitor 14D12 first;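 note: normalized to binding of second antibody without first competitor antibody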
[25] = molecular target: T6, Human VSIG4-L-Fc; experiment: BLI binning on hVSIG4-L-Fc, competitor 12A08 first;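 note: normalized to binding of second antibody without first competitor antibody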
Procedure: as §1, §2

[26] = molecular target: T6, Human VSIG4-L-Fc; experiment: ligand blocking of C3b, IgG
[27] = molecular target: T1, Human VSIG4-L-His; experiment: BLI, IgG on AHC sensor, antigen 100 nM
[28] = molecular target: T3, Cynomolgus Monkey VSIG4-L-His; experiment: BLI, IgG on AHC sensor, antigen 100 nM

Binder	normalized maximum binding nm shift [1]	normalized maximum binding nm shift [2]	normalized maximum binding nm shift [3]	Kd [4]	Kd [6]	IC50 [7]	Binding (200 nM) MFI [8]	IC50 [9]	Kd [10]	Kd [11]	normalized maximum binding nm shift [12]	ELISA OD450 [13]	ELISA OD450 [14]	ELISA OD450 [15]	ELISA OD450 [16]	normalized maximum binding nm shift [17]	EC50 [18]	Percent Blocking iC3b [19]	normalized maximum binding nm shift [20]	normalized maximum binding nm shift [21]	further results
12A08 mouse/human chimeric IgG4 (S228P) kappa (antibody, V domains shown) VH: EVMLVESGGGLVKPGGSLKLSCAASGFTFDDFYMYWVRQTPEKRLEWVASISDGGTYTYYPDSVKGRFTISRDNAKNTLYLQLSSLKSEDTAMYYCARGVDKYYYAMDYWGQGTSVTVSS VL: QILLTQSPAIMSASPGEKVTITCSASSSVSYMHWFQQKPGTSPKLWIYSTSNLASGVPARFSGSGSGTSYSLTISRMEAEDAATYYCQQRSSYPLTFGAGTKLELKR	0.1 normalized	0.72 normalized	0.78 normalized	20.6 nM	15.7 nM	1 nM	121000 MFI	0.4 nM	6.7 nM	3.9 nM	0.44 normalized	0.056 OD450	4.44 OD450	4.43 OD450	3.37 OD450	0.69 normalized	6.8 nM	98%	0.76 normalized	0.94 normalized	Kd [5]: 18.8 nM; Binding (200 nM) Fold-Over-Parental [22]: 357 fold; normalized maximum binding nm shift [23]: 0.89 normalized; normalized maximum binding nm shift [24]: 0.7 normalized; normalized maximum binding nm shift [25]: 0.1 normalized; Percent Blocking C3b [26]: 96%
15C04 mouse/human chimeric IgG4 (S228P) kappa (antibody, V domains shown) VH: QIQLQESGPSLVRPSQTLSLTCSVTGDSITSGYWNWIRKFPGDKLEYLGYISYSGFTYYNPSLKSRISITRDTSKNQYYLQLNSVTTEDTATYYCASSYYGSSLGFPYWGQGTLVTVSA VL: DVVMTQTPLSLPVSLGDQASISCRSSQSLVHSNGNTYLHWYLQKPGQSPKLLIYKVSNRFSGVPDRFSGSGSGTDFTLKISRVEAEDLGVYFCSQSTHVPWTFGGGTKLEIKR	0.74 normalized	0.72 normalized	0.82 normalized	25.4 nM	183 nM	19.7 nM	53200 MFI	17 nM	5.4 nM	15.6 nM	0.92 normalized	0.052 OD450	4.43 OD450	4.53 OD450	3.28 OD450	0.68 normalized	8.9 nM	94%	0.08 normalized	0.16 normalized	Binding (200 nM) Fold-Over-Parental [22]: 73 fold; normalized maximum binding nm shift [23]: 0.81 normalized; normalized maximum binding nm shift [24]: 0.72 normalized; normalized maximum binding nm shift [25]: 0.8 normalized; Percent Blocking C3b [26]: 93%
16E10 mouse/human chimeric IgG4 (S228P) kappa (antibody, V domains shown) VH: QVQLQQSGAELVRPGTSVKISCKASGYTFTNYWLGWVKQRPGHGLEWIGDIYPGGGYTNYNEKFKGKATLTADTSSSTAYMQLSSLTSEDSAVYFCAKFYYYGSSYYFDSWGQGTTLTVSS VL: DIVLTQSPSSLSVSAGEKVTLSCKSSQSLLNSGNQENYLAWYQQKPGQPPKLLIYGASTRESGVPDRFTGSGSGTDFTLTISSVQAEDLAVYYCQNDHSYPLTFGAGTKLELKR	0.1 normalized	0.74 normalized	0.25 normalized	68.5 nM	37.6 nM	0.7 nM	14700 MFI	3.6 nM	66.1 nM	1.3 nM	0.15 normalized	0.048 OD450	4.44 OD450	4.5 OD450	2.04 OD450	0.65 normalized	1 nM	72%	0.77 normalized	0.89 normalized	Kd [5]: 75.3 nM; KD relative to parental chimera [27]: 1 fold; KD relative to parental chimera [28]: 1 fold; Binding (200 nM) Fold-Over-Parental [22]: 50 fold; normalized maximum binding nm shift [23]: 0.88 normalized; normalized maximum binding nm shift [24]: 0.69 normalized; normalized maximum binding nm shift [25]: 0 normalized; Percent Blocking C3b [26]: 33%
